Assay results published in the supplement of paper PMC12636428.

What follows are sequences tested on Saccharomyces cerevisiae (assay: transcriptional activation domain activity (GFP:mCherry ratio, weighted mean of sorted bins, harmonized to initial dataset scale) (arbitrary fluorescence ratio units); higher = stronger transcriptional activation). Conditions: beta-estradiol 1 µM; induction time 4 h.
How it was run: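 For this assay, yeast diploids with a GFP reporter carried barcoded protein tiles at URA3, each fused to an estradiol-inducible synthetic transcription factor. Induction was a 1:5 dilution into SC with 1 uM beta-estradiol for 4 hours at 30 °C, followed by sorting into 8 bins by GFP:mCherry ratio and barcode sequencing. Tiles under 50 reads were dropped, and activation activity was calculated as the read-weighted mean of bin median fluorescence, averaged across barcodes and linearly mapped onto the initial dataset scale.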

Sequence | transcriptional activation domain activity
YNVWILFRHLVDLILLNDFVAYSLFGFSWMQFSPNHSTFFHVLRWIGGWSLVG | 69200
YPFLLKLCFDIFLLPLHFFYFPFFFSLITHYIFFFTGTLSHLYICFILLCLFL | 36400
YPKALPFYGKILGYMTSIYDTIARLAFLKTLQPQGPLDYMLWLVIMTATRIFY | 53800
YPLLVCLLDLVKNNSLDDTGWLIGLGCTLWYENSIYIVRKAMELCLRAQEKID | 52000
YPNLSGNTFICSSRGSITGRMTVSGDDFIASQYDYSYSHVWRNLGILIAFWIF | 53500
YPVGKQVLARYPETTTFYRAEVMGTKRDGTCRLKFEGEEEVGKETEVERRLVL | 77100
YQKLLVDARQAAEMFFKMLHYELWTHLLERLLRLRQMCNHWSLCKKKGMENCR | 54300
YQLASDRSADCGLLRLVLDAQTFGATAAVIVLDWARPWRFIKSLLRWMHVLST | 42000
YQNLYFIQLLVSCWALIGMLHLSLNRFEHLHFMVYMRPSGSKYLVAISWCLFL | 66900
YQTGYFSEAHFFLFFLFFYFRKSFSFQSNCISYTLPFGLLPIFFSTTIVLFWF | 66400
YQVYYYYQHFRNDAFGMQCLVYGASLINLLHSILLPKCVYFWVSTYWGNLSAL | 60400
YQWVNYDLDTICMNFWTLKFLPDELPPIKHFSVVANDCKLFMYNVMGIIRFMS | 82700
YRALHQRIWDEGLYECNYRAYAIECTRYVLLFTLMWVCLYFQRYFLGAFFLGA | 83700
YREIPPEQLHGFPRIVDDINYNPVFLFDTFAAYTTLINYWMHMLILRSNTFLL | 53100
YRHLKPIMISSPVFCYLQLLGLIMCYLSLLVKVGKPSPSICISRQFLLPMGFV | 43200
YRISLAILQLCKDHLLQSCPTNSEILAFLLHIPHDYLTADVLLDTAFHIKLSK | 54000
YRLLLSLVVRLYFFLRFSLSHTLRTVVIVLAPLTYFLSGITYIFFTAPYRVLF | 61800
YRSRGIDEGRGKREAGRERERAERRSTKEAEKGGEGRWEGRSARRKEAGGKKG | 56700
YRTSQDLVGLSTVLEQYFNIGGLTGLLIIGDLIHCGLLPMPSIITWTRLIAHV | 68800
YSASPLEGDSSLPSSLPSSTEDCLLLSLENTITVIAGNQRQAYDSTSSTEEGT | 16100
YSHLFNLHTVVFDNYLLYHNAFLLFPLVFCVLPICAIFCFCGMLCNLNRLSGR | 66600
YSILLSVILIFWWSVFTYYPSHLSYLSQRFSYYVWGDDSIDAVTVFKAWVYAH | 61800
YSIQVFMVPQLAICKVDSIGNVIGGQGGCYNLIPVFDWVRRCVVSIFLVFMVA | 71500

Sequence | transcriptional activation domain activity
YSIYVYRYFLYQWGDLCYMALHPTTSSLIGVIVCKLEPHRSGPFRGYIAMLAV | 42600
YSLNIFIFGNGRYGSTIQANLHGLRSFIRLVPKDCLALIRHLHLHIFFSGLPD | 54800
YSMPSEICIVGFSGVNTAFIVSLLVDLGFQASPIYSMYMFFLTWRFCARLVHY | 66500
YSNSISNSNSNSTGNLNSSYFNSLNIDSMLDDYVSSDLLLNDDDDDTNLSRRR | 88700
YSPLYLAITFAVQYGISFTSMTAVVVRTILWYRHDITWTFTLIYSSLGVAAFV | 63700
YSQLILYLLAKAKLHWNELQNLQVIFADLFEHIHIAGILPNKYQTLSVMANAL | 56500
YSRLILSVIIQFYQRCSDRFQDVVSRNSLDLTDTRLLVSARWAQRENLVVCLS | 49600
YSRRDRPRDRGDRGDRDGGEERGGRRDRGDRNDRFGGEDRGGRGRRDGGGGGG | 10400
YSYVDSNMDSISSVVSEDLLDERGHEKIEDEDEDNDLDEDDIYDISLLKNRRK | 26500
YTIGFVGFVMSLQKGYLKQQFGLFCWVHMSLLIIVLSSHFVINNILEGLIWFW | 54600
YTKTIATRNVANQTRLGKVRKSSVIVIAGNGHGRLGVGMAKSIEAPVATMAAT | 56400
YTLILSLFYSLAPVLFRLSSAAFFNISLLTGSFWGVAIGVKVFHLSIHWMYPI | 42600
YTNVYRCIKDEVYLLLSRLSLNWRKQDDYIWLLNLWTIWAAPWRLGNVPIISG | 53500
YTRCEVIYLKRSLPSYFGPSMLQFTILFILIVTNSIVLLGLFLLLCRTLWGLA | 19500
YTRQLALGCVTRLLWTYLFRCTESTVIAFKKLDGIIKTLFPPFRRTIYPSETP | 61400
YTRVVTRFKRLFVSSRGYTAFIPALFKVFCDVEHLAPIRSAIVFAWCRFYAVH | 67300
YTSLIILVTWLSIVFSKFVLHRRTFGLVFVHLHFFFLFALFSFFFSYCVCIRI | 60600
YTTPQFAGMWSQLVEWQWLVIEKFLDILLNMLYLLHGMSYIWGNLFLPYFRLV | 53600
YTYLSNAQLILSICSLYSCSPYLDPYMLLPLLRWAFLYVFLLVLAFAAVLFSA | 41800
YVAPGVASPIPVNYIWTPFASWRLVAILISLLSLYSWGMLIFFFWFLFWLLLY | < 6570
YVASQLIEIFLPEALFSVVYLSNAGKCLSREEFLVQFTFLVRLFKHEFVYPWN | 30700
YVDEENQSSNGAVRLWKRHFTLSGIMNRLLRKTVRRNTWIYISVSTLIVQIRR | 45700
YVGKYPESIDTFSIVPRTPTSRLIRSYLKTILANPESRKIFYFLMLNLAYMLV | 58300

Sequence | transcriptional activation domain activity
YVGRSVLIHQSHGSFEILILWNHYPLLCFFFCHGRRRVFSARLSLLLFCLCRF | 54700
YVILVAVSIFTTTYVMLTSLPVLFQQCPFQTPLSSIIWYLGHFLVIAFLSLFS | 62600
YVKSRGYKTIIRFFPHEVADLELARACMRGAAREPRQWALRYAALLWLALICM | 68700
YVLATCYPKWVYEVLMATRGRIWCVLILLAYPFFAVGVGVIVCVMGLLVAAWI | 35800
YVLVLTYLNYFVLILFGHMRDILGKVFKAQAYVHLKTVNGYAPLVSDFDSFYN | 63900
YVRRARGYVMYGLFQLMLRFLLAGFFFFSFRGGDMGIGCGYRLLLLLFFFFIY | 35800
YVSVNEHGDETDSSFVRLVNLGSSIVIQHITCYLQSRVVFYLMNLHSMPRAIF | 60800
YVVLEVGLNVQLDRMAQSDARMVVHALSGGPFIDVVRWVPLRMSSGAFQIGLR | 68300
YVVLQGLSGAASGFLQIVPLIIYYVKLFLMGSTPRSVYKIKYTLRHVSWGTLF | 66600
YVVQYKNSLIGKHFKMLQQLGVFHLHDLCTPLLFDLWKATGELGALLWYPEIK | 33300
YVVVVLTAMQVGLATETLAHNKAFVTISYGFSIFSIFIPIVFTLLLLLVFFFV | 19400
YYAECCTHTGNAHKVQRKMLNPVFTTKHMKARMWYQFMLLFLKEALMNELKGY | 14300
YYCLLWVRVSIKGQKGAVIAPEQIVIGWVDFHALIIVLWSNRISITLCVARVI | 29200
YYGMYPQDISTLGVSPRTPTSRLIRSYMKTILSNPESRKIFYFLMLNMCYMLV | 58900
YYGRTIVRTNFWLKTYINFEIDALLLNGRATVRRFINHLYQDQRAKLFKECKH | 54700
YYGWLPFGISSILVEIPYCMFFCASFMCGFYWTAGLVNHPVNCGYFYLMLMFF | 69900
YYLGKYQENSKEKRKFQVIRSGMSELNHILYMALDNATNMVIMWMLLVQYHAT | 55600
YYPLFLGRLLPLSLLSFFVYFILFTFAFLPQLAFLYIFHGRGAWLNAIFLVLG | 44200
YYVILLSIKLFGINSSLWALLITLTNWFNLYLSCRLIPNNIEGILTIIALYYW | 66500
YYVPLLASPTFWAVTLPLYCVFVGIQVFFVFLEAAGLSLHLVVIFWWLGWWAG | 53000
YYYFNYFYFYYFYYYFIIIIIILFYLILFLFLFLLLLLFIYFYFYFNYFYYLF | 69700
